# Measured values: PMC314469, “Protein Interaction Networks by Proteome Peptide Scanning” (PLoS Biology, 2004)
# T1: Boi1 SH3 (BOI1_YEAST), P38041
# T1 chain: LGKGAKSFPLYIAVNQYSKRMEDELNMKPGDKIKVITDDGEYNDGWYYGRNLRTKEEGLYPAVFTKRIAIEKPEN
# T2: Boi2 SH3 (BOI2_YEAST), P39969
# T2 chain: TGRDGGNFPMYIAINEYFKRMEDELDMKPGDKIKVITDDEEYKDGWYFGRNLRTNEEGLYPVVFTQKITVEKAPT
# T3: Myo5 SH3 (MYO5_YEAST), Q04439
# T3 chain: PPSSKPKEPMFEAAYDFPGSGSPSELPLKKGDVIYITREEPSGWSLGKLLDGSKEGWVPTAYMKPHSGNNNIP
# T4: Rvs167 SH3 (RV167_YEAST), P39743
# T4 chain: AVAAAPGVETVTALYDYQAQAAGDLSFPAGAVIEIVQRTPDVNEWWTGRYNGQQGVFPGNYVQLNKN
# T5: Yfr024 SH3 (LSB3_YEAST), P43603
# T5 chain: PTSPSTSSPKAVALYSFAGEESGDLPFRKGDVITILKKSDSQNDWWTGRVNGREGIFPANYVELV
# T6: Yhr016c SH3 (YSC84_YEAST), P32793
# T6 chain: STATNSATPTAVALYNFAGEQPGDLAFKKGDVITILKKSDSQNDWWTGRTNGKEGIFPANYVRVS
# Target: T1, Boi1 SH3 (BOI1_YEAST), P38041
# Test: SPOT array
row,Binder,"normalised SPOT signal, Boehringer light units (BLU); mean over the file's lines of this peptide"
1,FVFFKSLPDLPKPQ [YML104C 41-54],129
2,FSTKKSKPIRPFVF [YMR259C 335-348],267
3,GFLSKKVPNTPVVV [YNL094W 196-209],426
4,FSKKKEAPEDPKNL [YNL231C 5-18],56.7
5,GDEERFLPNRPHYE [YPR117W 1311-1324],54.3
6,GHKKKNLPKFPKNK [YDL051W 238-251],517
7,GDHPKGPPPPPPPD [YOR389W 154-167],30.8
8,FYDFRSLPKVPTTQ [YPR151C 52-65],4350
9,FVSPRRAPKPPSYP [YER114C 436-449],4960
10,GFQDRSLPHFPKNS [YOR116C 826-839],88.7
11,GEMVKLTPKNPFYK [YBR214W 193-206],152
12,GENIKITPQKPFWF [YJR122W 473-486],82.4
13,FYKEKAKPLEPILD [YGL195W 1152-1165],80.5
14,GDHPKGPPPPPPPP [YPL277C 154-167],70
15,FQYTKGRPLAPKGA [YGL009C 253-266],59.6
16,FRPHRLAPSAPATK [YOL113W 305-318],9160

# Target: T2, Boi2 SH3 (BOI2_YEAST), P39969
# Test: SPOT array
row,Binder,"normalised SPOT signal, Boehringer light units (BLU); mean over the file's lines of this peptide"
1,FVFFKSLPDLPKPQ [YML104C 41-54],8.6
2,FSTKKSKPIRPFVF [YMR259C 335-348],30.8
3,GFLSKKVPNTPVVV [YNL094W 196-209],5.3
4,FSKKKEAPEDPKNL [YNL231C 5-18],18.3
5,GDEERFLPNRPHYE [YPR117W 1311-1324],34.4
6,GHKKKNLPKFPKNK [YDL051W 238-251],23.1
7,GDHPKGPPPPPPPD [YOR389W 154-167],1.7
8,FYDFRSLPKVPTTQ [YPR151C 52-65],74.9
9,FVSPRRAPKPPSYP [YER114C 436-449],13.1
10,GFQDRSLPHFPKNS [YOR116C 826-839],18.7
11,GEMVKLTPKNPFYK [YBR214W 193-206],23.6
12,GENIKITPQKPFWF [YJR122W 473-486],35.5
13,FYKEKAKPLEPILD [YGL195W 1152-1165],27.8
14,GDHPKGPPPPPPPP [YPL277C 154-167],0.3
15,FQYTKGRPLAPKGA [YGL009C 253-266],14.9
16,FRPHRLAPSAPATK [YOL113W 305-318],26

# Target: T3, Myo5 SH3 (MYO5_YEAST), Q04439
# Test: SPOT array
row,Binder,"normalised SPOT signal, Boehringer light units (BLU); mean over the file's lines of this peptide"
1,FVFFKSLPDLPKPQ [YML104C 41-54],860
2,FSTKKSKPIRPFVF [YMR259C 335-348],378
3,GFLSKKVPNTPVVV [YNL094W 196-209],71.3
4,FSKKKEAPEDPKNL [YNL231C 5-18],148
5,GDEERFLPNRPHYE [YPR117W 1311-1324],126
6,GHKKKNLPKFPKNK [YDL051W 238-251],789
7,GDHPKGPPPPPPPD [YOR389W 154-167],40100
8,FYDFRSLPKVPTTQ [YPR151C 52-65],337
9,FVSPRRAPKPPSYP [YER114C 436-449],1580
10,GFQDRSLPHFPKNS [YOR116C 826-839],178
11,GEMVKLTPKNPFYK [YBR214W 193-206],408
12,GENIKITPQKPFWF [YJR122W 473-486],115
13,FYKEKAKPLEPILD [YGL195W 1152-1165],87.7
14,GDHPKGPPPPPPPP [YPL277C 154-167],20200
15,FQYTKGRPLAPKGA [YGL009C 253-266],235
16,FRPHRLAPSAPATK [YOL113W 305-318],1410

# Target: T4, Rvs167 SH3 (RV167_YEAST), P39743
# Test: SPOT array
row,Binder,"normalised SPOT signal, Boehringer light units (BLU); mean over the file's lines of this peptide"
1,FVFFKSLPDLPKPQ [YML104C 41-54],179
2,FSTKKSKPIRPFVF [YMR259C 335-348],228
3,GFLSKKVPNTPVVV [YNL094W 196-209],100
4,FSKKKEAPEDPKNL [YNL231C 5-18],66.9
5,GDEERFLPNRPHYE [YPR117W 1311-1324],10.7
6,GHKKKNLPKFPKNK [YDL051W 238-251],31.7
7,GDHPKGPPPPPPPD [YOR389W 154-167],54.8
8,FYDFRSLPKVPTTQ [YPR151C 52-65],263
9,FVSPRRAPKPPSYP [YER114C 436-449],42.1
10,GFQDRSLPHFPKNS [YOR116C 826-839],240
11,GEMVKLTPKNPFYK [YBR214W 193-206],73.6
12,GENIKITPQKPFWF [YJR122W 473-486],74.1
13,FYKEKAKPLEPILD [YGL195W 1152-1165],25.4
14,GDHPKGPPPPPPPP [YPL277C 154-167],10.9
15,FQYTKGRPLAPKGA [YGL009C 253-266],22.3
16,FRPHRLAPSAPATK [YOL113W 305-318],228

# Target: Sho1 SH3 (SHO1_YEAST), P40073
# Test: SPOT array
# Chain of Sho1 SH3 (SHO1_YEAST), P40073 (P40073 295-366): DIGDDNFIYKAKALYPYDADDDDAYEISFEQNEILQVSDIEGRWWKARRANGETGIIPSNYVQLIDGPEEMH
row,Binder,"normalised SPOT signal, Boehringer light units (BLU); mean over the file's lines of this peptide"
1,FVFFKSLPDLPKPQ [YML104C 41-54],35800
2,FSTKKSKPIRPFVF [YMR259C 335-348],182
3,GFLSKKVPNTPVVV [YNL094W 196-209],47.5
4,FSKKKEAPEDPKNL [YNL231C 5-18],42.3
5,GDEERFLPNRPHYE [YPR117W 1311-1324],37.9
6,GHKKKNLPKFPKNK [YDL051W 238-251],4690
7,GDHPKGPPPPPPPD [YOR389W 154-167],28.1
8,FYDFRSLPKVPTTQ [YPR151C 52-65],30200
9,FVSPRRAPKPPSYP [YER114C 436-449],96.2
10,GFQDRSLPHFPKNS [YOR116C 826-839],5160
11,GEMVKLTPKNPFYK [YBR214W 193-206],60.2
12,GENIKITPQKPFWF [YJR122W 473-486],46
13,FYKEKAKPLEPILD [YGL195W 1152-1165],62.7
14,GDHPKGPPPPPPPP [YPL277C 154-167],6.3
15,FQYTKGRPLAPKGA [YGL009C 253-266],66.9
16,FRPHRLAPSAPATK [YOL113W 305-318],44.7

# Target: T5, Yfr024 SH3 (LSB3_YEAST), P43603
# Test: SPOT array
row,Binder,"normalised SPOT signal, Boehringer light units (BLU); mean over the file's lines of this peptide"
1,FVFFKSLPDLPKPQ [YML104C 41-54],448
2,FSTKKSKPIRPFVF [YMR259C 335-348],864
3,GFLSKKVPNTPVVV [YNL094W 196-209],81.6
4,FSKKKEAPEDPKNL [YNL231C 5-18],13.4
5,GDEERFLPNRPHYE [YPR117W 1311-1324],1300
6,GHKKKNLPKFPKNK [YDL051W 238-251],594
7,GDHPKGPPPPPPPD [YOR389W 154-167],0
8,FYDFRSLPKVPTTQ [YPR151C 52-65],3030
9,FVSPRRAPKPPSYP [YER114C 436-449],826
10,GFQDRSLPHFPKNS [YOR116C 826-839],180
11,GEMVKLTPKNPFYK [YBR214W 193-206],208
12,GENIKITPQKPFWF [YJR122W 473-486],29.7
13,FYKEKAKPLEPILD [YGL195W 1152-1165],0
14,GDHPKGPPPPPPPP [YPL277C 154-167],11.5
15,FQYTKGRPLAPKGA [YGL009C 253-266],190
16,FRPHRLAPSAPATK [YOL113W 305-318],1010

# Target: T6, Yhr016c SH3 (YSC84_YEAST), P32793
# Test: SPOT array
row,Binder,"normalised SPOT signal, Boehringer light units (BLU); mean over the file's lines of this peptide"
1,FVFFKSLPDLPKPQ [YML104C 41-54],80.2
2,FSTKKSKPIRPFVF [YMR259C 335-348],66.2
3,GFLSKKVPNTPVVV [YNL094W 196-209],24.7
4,FSKKKEAPEDPKNL [YNL231C 5-18],21.7
5,GDEERFLPNRPHYE [YPR117W 1311-1324],653
6,GHKKKNLPKFPKNK [YDL051W 238-251],47.5
7,GDHPKGPPPPPPPD [YOR389W 154-167],3.6
8,FYDFRSLPKVPTTQ [YPR151C 52-65],496
9,FVSPRRAPKPPSYP [YER114C 436-449],70.9
10,GFQDRSLPHFPKNS [YOR116C 826-839],49.7
11,GEMVKLTPKNPFYK [YBR214W 193-206],44.4
12,GENIKITPQKPFWF [YJR122W 473-486],33
13,FYKEKAKPLEPILD [YGL195W 1152-1165],57
14,GDHPKGPPPPPPPP [YPL277C 154-167],23.3
15,FQYTKGRPLAPKGA [YGL009C 253-266],42.6
16,FRPHRLAPSAPATK [YOL113W 305-318],109
